B1: TrxA-tagged wild-type human TRAF7 CC (fragment 270–379 aa) [human] / itself (parent)
chain: GNQDTYETHLETCRFEGLKEFLQQTDDRFHEMHVALAQKDQEIAFLRSMLGKLSEKIDQLEKSLELKFDVLDENQSKLSEDLMEFRRDASMLNDELSHINARLNMGILGS

Variants of: B1
Test: SEC-MALS (self-association / trimerisation)
Conditions: with itself; TrxA-tagged at the N-terminus; theoretical molecular weight of the WT trimer is 84.9 kDa

screen value [kDa] | Variant
49.5 | chain 1 L53R
63.5 | chain 1 L78R
